The target in assay [1] is Mst1r (macrophage stimulating 1 receptor/RON kinase) on mouse erythroid progenitor cells (mouse) (UniProt Q62190). As to the kind of experiment: cell-based or functional assay.
Assay [2] has as its target IL-17Ra on mouse bone marrow erythroid progenitor cells (mouse) (UniProt Q60943). Nature of the assay: cell-based or functional assay.

Bounds are passed on as bounds.

Our source for the FL CFU-e colony formation and adult BM CFU-e colony formation values is patent US20190358295A1.

Chain of UniProt Q60943 (Q60943 32-864): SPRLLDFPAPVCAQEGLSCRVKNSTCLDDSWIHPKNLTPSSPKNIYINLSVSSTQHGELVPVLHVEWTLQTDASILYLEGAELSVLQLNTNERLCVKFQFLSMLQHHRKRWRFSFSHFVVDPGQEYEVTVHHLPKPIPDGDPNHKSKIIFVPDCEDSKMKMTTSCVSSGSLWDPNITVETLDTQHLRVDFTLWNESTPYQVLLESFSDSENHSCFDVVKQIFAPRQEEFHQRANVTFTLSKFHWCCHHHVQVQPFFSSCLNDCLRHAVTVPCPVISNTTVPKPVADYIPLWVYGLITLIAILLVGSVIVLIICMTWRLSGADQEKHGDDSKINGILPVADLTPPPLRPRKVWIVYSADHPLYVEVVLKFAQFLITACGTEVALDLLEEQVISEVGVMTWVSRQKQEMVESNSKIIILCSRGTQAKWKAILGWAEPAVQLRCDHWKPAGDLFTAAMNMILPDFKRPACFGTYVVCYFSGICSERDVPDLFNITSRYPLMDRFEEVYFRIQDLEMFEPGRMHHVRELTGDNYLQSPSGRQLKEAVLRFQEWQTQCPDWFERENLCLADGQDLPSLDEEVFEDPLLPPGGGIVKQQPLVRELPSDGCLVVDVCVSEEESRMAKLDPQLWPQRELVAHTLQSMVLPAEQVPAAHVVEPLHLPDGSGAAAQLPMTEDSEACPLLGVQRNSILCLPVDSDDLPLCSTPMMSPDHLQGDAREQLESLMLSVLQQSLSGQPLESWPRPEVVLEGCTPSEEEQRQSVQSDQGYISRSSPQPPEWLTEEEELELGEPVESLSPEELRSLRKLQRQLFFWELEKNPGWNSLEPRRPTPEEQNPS
Chain of UniProt Q62190 (Q62190 24-1378): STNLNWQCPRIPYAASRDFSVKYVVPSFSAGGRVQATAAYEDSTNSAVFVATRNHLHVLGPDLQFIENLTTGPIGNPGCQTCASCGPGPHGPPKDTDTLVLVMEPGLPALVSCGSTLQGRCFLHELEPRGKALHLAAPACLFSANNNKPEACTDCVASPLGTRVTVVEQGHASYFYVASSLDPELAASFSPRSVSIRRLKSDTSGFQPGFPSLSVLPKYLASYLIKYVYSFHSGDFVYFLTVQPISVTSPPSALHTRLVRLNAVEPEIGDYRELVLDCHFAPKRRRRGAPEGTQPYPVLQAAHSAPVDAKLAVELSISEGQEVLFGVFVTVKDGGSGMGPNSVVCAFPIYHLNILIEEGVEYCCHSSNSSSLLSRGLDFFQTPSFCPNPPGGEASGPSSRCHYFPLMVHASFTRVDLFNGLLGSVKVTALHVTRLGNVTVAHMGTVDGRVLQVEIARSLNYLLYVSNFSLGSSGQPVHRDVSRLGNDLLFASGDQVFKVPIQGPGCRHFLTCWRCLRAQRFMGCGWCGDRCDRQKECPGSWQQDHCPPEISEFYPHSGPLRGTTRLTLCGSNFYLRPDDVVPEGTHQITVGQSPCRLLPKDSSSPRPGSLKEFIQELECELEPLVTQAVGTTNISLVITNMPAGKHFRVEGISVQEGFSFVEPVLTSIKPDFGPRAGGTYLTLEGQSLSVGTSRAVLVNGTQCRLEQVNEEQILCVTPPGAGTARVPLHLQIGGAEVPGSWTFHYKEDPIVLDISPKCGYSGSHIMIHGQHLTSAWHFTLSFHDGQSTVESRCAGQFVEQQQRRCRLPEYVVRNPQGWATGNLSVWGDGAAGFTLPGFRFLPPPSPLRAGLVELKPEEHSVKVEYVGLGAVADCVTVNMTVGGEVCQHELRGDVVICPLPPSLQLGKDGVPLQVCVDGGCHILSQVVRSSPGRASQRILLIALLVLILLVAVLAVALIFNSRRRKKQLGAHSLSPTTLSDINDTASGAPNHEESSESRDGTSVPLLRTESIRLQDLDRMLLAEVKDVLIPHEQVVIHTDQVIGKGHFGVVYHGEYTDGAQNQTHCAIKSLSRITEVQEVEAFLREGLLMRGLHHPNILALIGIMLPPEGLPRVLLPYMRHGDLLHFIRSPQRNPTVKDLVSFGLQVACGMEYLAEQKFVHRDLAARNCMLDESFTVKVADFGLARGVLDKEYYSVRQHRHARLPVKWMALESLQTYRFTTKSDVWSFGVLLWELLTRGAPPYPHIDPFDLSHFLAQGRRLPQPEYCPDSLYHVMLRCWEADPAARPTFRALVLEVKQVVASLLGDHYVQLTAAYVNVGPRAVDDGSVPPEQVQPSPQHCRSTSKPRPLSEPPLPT

Consider “MSP/MST1 (R&D systems; CAT #6244-MS-025) (from UniProt P26928 19-716) (ligand)”, for which the FL CFU-e colony formation at mildly elevated Epo (50 mU/ml) in assay [1] was over 2 fold.

B1: Recombinant Murine IL17 (IL-17A) (PeproTech) (ligand, UniProt Q62386 26-158, looked up)
chain: AAIIPQSSACPNTEAKDFLQNVKVNLKVFNSLGAKVSSRRPSDYLNRSTSPWTLHRNEDPDRYPSVIWEAQCRHQRCVNAEGKLDHHMNSVLIQQEILVLKREPESCPFTFRVEKMLVGVGCTCVASIVRQAA
In assay [2], B1 gave an adult BM CFU-e colony formation at lower Epo (50 mU/ml) of 4 fold and an adult BM CFU-e colony formation at maximal levels of Epo of 50%.
